From the supplement of paper PMC10567573

B1: ZNF277 (parent)
chain: ILREELQKQRLREILEQQQQERND

Variants of: B1
Test: protein stability index of a GFP-peptide fusion (GPS, HEK-293T) (PSI 1-6); higher = more stable
Conditions: c terminus: a fixed tail appended
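Note: lentivirally expressed fusions sorted by FACS into six bins by GFP to DsRed ratio, PSI derived from sequencing read proportions per bin multiplied by bin number.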

Going from IGREELQKQRLREILEQQQQERND [L2G] to IEREELQKQRLREILEQQQQERND [L2E], the protein stability index rises from 5.11 to 5.51.

Compared with ITREELQKQRLREILEQQQQERND [L2T], IAREELQKQRLREILEQQQQERND [L2A] is higher in protein stability index: 5.04 for the first, 5.13 for the second.

First: IFREELQKQRLREILEQQQQERND [L2F]
Second: ICREELQKQRLREILEQQQQERND [L2C]
The protein stability index of the first is higher: 4.55 for the first, 3.94 for the second.

Compared with INREELQKQRLREILEQQQQERND [L2N], IRREELQKQRLREILEQQQQERND [L2R] is lower in protein stability index: 5.57 for the first, 5.03 for the second.

Compared with IWREELQKQRLREILEQQQQERND [L2W], IKREELQKQRLREILEQQQQERND [L2K] is higher in protein stability index: 3.79 for the first, 5.45 for the second.

Going from IQREELQKQRLREILEQQQQERND [L2Q] to ILREEIQKQRLREILEQQQQERND [L6I], the protein stability index falls from 5.61 to 4.56.

Compared with ILREEQQKQRLREILEQQQQERND [L6Q], ILREEDQKQRLREILEQQQQERND [L6D] is higher in protein stability index: 3.69 for the first, 4.76 for the second.

Compared with ILREEFQKQRLREILEQQQQERND [L6F], ILREENQKQRLREILEQQQQERND [L6N] is higher in protein stability index: 4.49 for the first, 4.65 for the second.

Going from ILREEMQKQRLREILEQQQQERND [L6M] to ILREEPQKQRLREILEQQQQERND [L6P], the protein stability index rises from 3.89 to 5.5.

First: ILREEGQKQRLREILEQQQQERND [L6G]
Second: ILREERQKQRLREILEQQQQERND [L6R]
The protein stability index of the first is higher: 4.9 for the first, 4.88 for the second.

Compared with ILREEHQKQRLREILEQQQQERND [L6H], ILREEEQKQRLREILEQQQQERND [L6E] is higher in protein stability index: 4.59 for the first, 5.19 for the second.

First: ILREECQKQRLREILEQQQQERND [L6C]
Second: ILREEKQKQRLREILEQQQQERND [L6K]
The protein stability index of the first is lower: 4.18 for the first, 4.96 for the second.

First: ILREEAQKQRLREILEQQQQERND [L6A]
Second: ILRVELQKQRLREILEQQQQERND [E4V]
The protein stability index of the first is higher: 4.4 for the first, 3.88 for the second.

Going from ILRYELQKQRLREILEQQQQERND [E4Y] to ILRHELQKQRLREILEQQQQERND [E4H], the protein stability index rises from 3.38 to 3.95.

Going from ILRSELQKQRLREILEQQQQERND [E4S] to ILRMELQKQRLREILEQQQQERND [E4M], the protein stability index falls from 4.18 to 3.75.

Compared with ILRKELQKQRLREILEQQQQERND [E4K], ILRIELQKQRLREILEQQQQERND [E4I] is higher in protein stability index: 3.22 for the first, 3.79 for the second.

Going from ILRAELQKQRLREILEQQQQERND [E4A] to ILRPELQKQRLREILEQQQQERND [E4P], the protein stability index rises from 3.85 to 4.95.

First: ILRQELQKQRLREILEQQQQERND [E4Q]
Second: ILRGELQKQRLREILEQQQQERND [E4G]
The protein stability index of the first is lower: 3.99 for the first, 4.89 for the second.

First: ILRTELQKQRLREILEQQQQERND [E4T]
Second: ILRDELQKQRLREILEQQQQERND [E4D]
The protein stability index of the first is higher: 4.42 for the first, 4.06 for the second.

Compared with ILRFELQKQRLREILEQQQQERND [E4F], ILRWELQKQRLREILEQQQQERND [E4W] is higher in protein stability index: 2.99 for the first, 3.28 for the second.

First: ILRRELQKQRLREILEQQQQERND [E4R]
Second: ILRNELQKQRLREILEQQQQERND [E4N]
The protein stability index of the first is lower: 3.61 for the first, 4.16 for the second.

First: ILRLELQKQRLREILEQQQQERND [E4L]
Second: ILTEELQKQRLREILEQQQQERND [R3T]
The protein stability index of the first is lower: 3.05 for the first, 4.36 for the second.

Compared with ILLEELQKQRLREILEQQQQERND [R3L], ILIEELQKQRLREILEQQQQERND [R3I] is higher in protein stability index: 2.82 for the first, 2.91 for the second.

Compared with ILKEELQKQRLREILEQQQQERND [R3K], ILEEELQKQRLREILEQQQQERND [R3E] is higher in protein stability index: 4.64 for the first, 5.21 for the second.

First: ILWEELQKQRLREILEQQQQERND [R3W]
Second: ILHEELQKQRLREILEQQQQERND [R3H]
The protein stability index of the first is lower: 2.56 for the first, 4.46 for the second.

First: ILAEELQKQRLREILEQQQQERND [R3A]
Second: ILMEELQKQRLREILEQQQQERND [R3M]
The protein stability index of the first is higher: 4.3 for the first, 3.68 for the second.

First: ILQEELQKQRLREILEQQQQERND [R3Q]
Second: ILYEELQKQRLREILEQQQQERND [R3Y]
The protein stability index of the first is higher: 4.69 for the first, 3.64 for the second.

Compared with ILDEELQKQRLREILEQQQQERND [R3D], ILNEELQKQRLREILEQQQQERND [R3N] is lower in protein stability index: 5.06 for the first, 4.37 for the second.

Compared with ILSEELQKQRLREILEQQQQERND [R3S], ILVEELQKQRLREILEQQQQERND [R3V] is lower in protein stability index: 4.96 for the first, 4.01 for the second.

First: ILGEELQKQRLREILEQQQQERND [R3G]
Second: ILPEELQKQRLREILEQQQQERND [R3P]
The protein stability index of the first is lower: 5.05 for the first, 5.31 for the second.

Compared with ILFEELQKQRLREILEQQQQERND [R3F], MLREELQKQRLREILEQQQQERND [I1M] is higher in protein stability index: 3.4 for the first, 4.66 for the second.

Going from NLREELQKQRLREILEQQQQERND [I1N] to YLREELQKQRLREILEQQQQERND [I1Y], the protein stability index falls from 4.99 to 4.75.

Compared with VLREELQKQRLREILEQQQQERND [I1V], HLREELQKQRLREILEQQQQERND [I1H] is higher in protein stability index: 4.4 for the first, 4.89 for the second.

First: ELREELQKQRLREILEQQQQERND [I1E]
Second: KLREELQKQRLREILEQQQQERND [I1K]
The protein stability index of the first is higher: 4.93 for the first, 4.24 for the second.

First: SLREELQKQRLREILEQQQQERND [I1S]
Second: PLREELQKQRLREILEQQQQERND [I1P]
The protein stability index of the first is higher: 5.12 for the first, 4.73 for the second.

First: ALREELQKQRLREILEQQQQERND [I1A]
Second: GLREELQKQRLREILEQQQQERND [I1G]
The protein stability index of the first is lower: 4.59 for the first, 4.93 for the second.

Compared with LLREELQKQRLREILEQQQQERND [I1L], TLREELQKQRLREILEQQQQERND [I1T] is higher in protein stability index: 4.09 for the first, 5.08 for the second.

Compared with CLREELQKQRLREILEQQQQERND [I1C], WLREELQKQRLREILEQQQQERND [I1W] is lower in protein stability index: 4.79 for the first, 4.19 for the second.

First: FLREELQKQRLREILEQQQQERND [I1F]
Second: ILREILQKQRLREILEQQQQERND [E5I]
The protein stability index of the first is higher: 4.43 for the first, 2.94 for the second.

First: ILRENLQKQRLREILEQQQQERND [E5N]
Second: ILREQLQKQRLREILEQQQQERND [E5Q]
The protein stability index of the first is higher: 4.7 for the first, 4.17 for the second.

First: ILREYLQKQRLREILEQQQQERND [E5Y]
Second: ILRECLQKQRLREILEQQQQERND [E5C]
The protein stability index of the first is lower: 3.55 for the first, 3.76 for the second.

Compared with ILREHLQKQRLREILEQQQQERND [E5H], ILRESLQKQRLREILEQQQQERND [E5S] is higher in protein stability index: 3.81 for the first, 3.99 for the second.

Going from ILRERLQKQRLREILEQQQQERND [E5R] to ILREDLQKQRLREILEQQQQERND [E5D], the protein stability index rises from 3.68 to 4.76.

Compared with ILREWLQKQRLREILEQQQQERND [E5W], ILREKLQKQRLREILEQQQQERND [E5K] is higher in protein stability index: 2.84 for the first, 4.51 for the second.

First: ILREGLQKQRLREILEQQQQERND [E5G]
Second: ILREFLQKQRLREILEQQQQERND [E5F]
The protein stability index of the first is higher: 5.27 for the first, 2.35 for the second.

Going from ILREALQKQRLREILEQQQQERND [E5A] to ILREPLQKQRLREILEQQQQERND [E5P], the protein stability index rises from 2.71 to 4.47.

Going from ILREVLQKQRLREILEQQQQERND [E5V] to ILREMLQKQRLREILEQQQQERND [E5M], the protein stability index rises from 2.42 to 3.05.
